Reference: publication PMC2175290 (The Journal of Cell Biology, 2000)

T1: Mex67pΔC1/His6-Mtr2p complex (S. cerevisiae | yeast, UniProt Q99257;P34232)
T1 sequence 1: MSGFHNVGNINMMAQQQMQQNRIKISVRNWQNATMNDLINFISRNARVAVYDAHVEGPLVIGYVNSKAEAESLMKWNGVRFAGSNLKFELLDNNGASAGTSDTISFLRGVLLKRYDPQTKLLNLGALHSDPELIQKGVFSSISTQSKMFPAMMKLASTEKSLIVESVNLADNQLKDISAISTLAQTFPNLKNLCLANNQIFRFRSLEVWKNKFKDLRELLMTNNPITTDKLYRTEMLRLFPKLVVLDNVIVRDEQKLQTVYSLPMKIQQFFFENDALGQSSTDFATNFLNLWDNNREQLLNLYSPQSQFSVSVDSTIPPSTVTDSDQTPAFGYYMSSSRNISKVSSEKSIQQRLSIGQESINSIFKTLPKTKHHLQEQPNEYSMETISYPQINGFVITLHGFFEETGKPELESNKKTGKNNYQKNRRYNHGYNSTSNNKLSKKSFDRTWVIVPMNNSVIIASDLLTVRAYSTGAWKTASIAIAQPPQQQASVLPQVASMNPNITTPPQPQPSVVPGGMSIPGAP
T1 sequence 2: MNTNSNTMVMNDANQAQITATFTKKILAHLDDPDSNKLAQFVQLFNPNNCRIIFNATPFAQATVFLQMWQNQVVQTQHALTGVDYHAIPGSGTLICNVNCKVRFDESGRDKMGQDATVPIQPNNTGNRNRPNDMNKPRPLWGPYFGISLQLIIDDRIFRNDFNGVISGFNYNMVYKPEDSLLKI

T2: Mex67p/His6-Mtr2p complex (S. cerevisiae | yeast, UniProt Q99257;P34232)
T2 sequence 1: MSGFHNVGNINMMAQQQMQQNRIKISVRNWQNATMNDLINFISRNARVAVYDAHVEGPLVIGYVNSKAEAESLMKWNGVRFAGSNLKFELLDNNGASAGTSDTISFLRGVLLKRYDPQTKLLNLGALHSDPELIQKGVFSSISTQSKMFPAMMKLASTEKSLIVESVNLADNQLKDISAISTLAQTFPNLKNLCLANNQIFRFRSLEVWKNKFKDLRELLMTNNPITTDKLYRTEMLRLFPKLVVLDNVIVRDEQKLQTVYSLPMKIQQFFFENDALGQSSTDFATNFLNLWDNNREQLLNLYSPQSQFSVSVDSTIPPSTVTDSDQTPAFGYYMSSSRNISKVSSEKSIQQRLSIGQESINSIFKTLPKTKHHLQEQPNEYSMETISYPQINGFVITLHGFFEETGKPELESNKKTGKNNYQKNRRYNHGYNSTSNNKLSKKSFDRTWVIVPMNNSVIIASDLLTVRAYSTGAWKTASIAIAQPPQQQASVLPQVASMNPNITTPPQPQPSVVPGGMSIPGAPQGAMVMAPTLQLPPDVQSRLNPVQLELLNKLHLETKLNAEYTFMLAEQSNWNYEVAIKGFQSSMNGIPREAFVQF
T2 sequence 2: T1 sequence 2

B1: GST-FG_(Nup159) (domain or fragment)
chain: QSQSSSTFGAPSFGSSAFKIDLPSVSSTSTGVASSEQDATDPASAKPVFGKPAFGAIAKEPSTSEYAFGKPSFGAPSFGSGKSSVESPASGSAFGKPSFGTPSFGSGNSSVEPPASGSAFGKPSFGTPSFGSGNSSAEPPASGSAFGKPSFGTSAFGTASSNETNSGSIFGKAAFGSSSFAPANNELFGSNFTISKPTVDSPKEVDSTSPFPSSGDQSEDESKSDVDSSSTPFGTKPNTSTKPKTNAFDFGSSSFGSGFSKALESVGSDTTFKFGTQASPFSSQLGNKSPFSSFTKDDTENGSLSKGSTSEINDDNEEHESNGPNVSGNDLTDSTVEQTSSTRLPETPSDEDGEVVEEEAQKSPIGKLTETIKKSANIDMAGLKNPVFGNHVKAKSESPFSAFATNITKPSSTTPAFSFGNSTMNKSNTSTVSPMEEADTKETS
B2: GST-GLFG_(Nup116) (domain or fragment)
chain: YQAGRKFGTSQNGTGTTFNNPQGTTNTGFGIMGNNNSTTSATTGGLFGQKPATGMFGTGTGSGGGFGSGATNSTGLFGSSTNLSGNSAFGANKPATSGGLFGNTTNNPTNGTNNTGLFGQQNSNTNGGLFGQQQNSFGANNVSNGGAFGQVNRGAFPQQQTQQGSGGIFGQSNANANGGAFGQQQGTGALFGAKPASGGLFGQSAGSKAFGMNTNPTGTTGGLFGQTNQQQSGGGLFGQQQNSNAGGLFGQNNQSQNQSGLFGQQNSSNAFGQPQQQGGLFGSKPAGGLFGQQQGASTFASGNAQNNSIFGQNNQQQQSTGGLFGQQNNQSQSQPGGLFGQTNQNNNQPFGQNGLQQPQQNNSLFGAKPTGFGNTSLFSNSTTNQSNGISGNNLQQQSGGLFQNKQQPASGGLFGSKPSNTVGGGLFGNNQVANQNNPASTSGGLFGSKPATGSLFGGTNSTAPNASSGGIFGSNNASNTAATTNSTGLFGNKPVGAGASTSAGGLFGNNNNSSLNNSNGSTGLFGSNNTSQSTNAGGLFQNNTSTNTSGGGLFSQPSQSMAQSQNALQQ
B3: untagged full-length Mex67p (natural protein)
chain: T2 sequence 1
B4: His6-Mtr2p (natural protein)
chain: T1 sequence 2

How the values were obtained:
[1] = target: T1, Mex67pΔC1/His6-Mtr2p complex; test: pull-down
[2] = target: T2, Mex67p/His6-Mtr2p complex; test: pull-down
His6-Mtr2p = target: B4; test: AUC
[3] = target: B3; test: pull-down

binding result [1]	binding result [2]	stoichiometry N (His6-Mtr2p)	binding result [3]	Binder
binds	binds			B1
binds	binds			B2
		1		B3
			binds	B4
